This is an account of results in patent US20230241072A1, “ANTHRACYCLINE DERIVATIVES” (ALMAC DISCOVERY LIMITED, priority 2019, published 2023).

The target in this experiment is ROR1 on the surface of human cancer cells (human) (UniProt Q01973). As to the kind of experiment: cell-based or functional assay.

B1: P3A1hFc-PEG4-vc-PAB-EDA-PNU (Fc fusion, not shown: a dimerising Fc or GST)
chain: TRVDQTPRTATKETGESLTINCVLTDTSYGLYSTSWFRKNPGTTDWERMSIGGRYVESVNKGAKSFSLRIKDLTVADSATYYCKAREARHPWLRQWYDGAGTVLTVNGGGGSGGGGSGGGGS
modifications: MA-PEG4-vc-PAB-EDA-PNU159682 on Cys 239 (EU) of the Fc
Turning to B1, the IC50 (nM) 96 h, cell viability (Cell Titre Glo), 697 cells was found to be 52 nM; the IC50 (nM) 96 h, cell viability (Cell Titre Glo), Kasumi-2 cells turned out to be 3.2 nM; the IC50 (nM) 96 h, cell viability (Cell Titre Glo), MHH-ES1 cells amounted to 24 nM; the IC50 (nM) 96 h, cell viability (Cell Titre Glo), PA-1 cells was 0.1 nM. The molecule further gave an ROR1 targeting/2V non-targeting window, 697 cells of 1.2 fold; an ROR1 targeting/2V non-targeting window, Kasumi-2 cells of 18 fold; an ROR1 targeting/2V non-targeting window, MHH-ES1 cells of 1.1 fold; an ROR1 targeting/2V non-targeting window, PA-1 cells of 73 fold.

B2: P3A1hFc(442)-PEG4-va-EDA-PNU (Fc fusion, not shown: a dimerising Fc or GST)
chain: TRVDQTPRTATKETGESLTINCVLTDTSYGLYSTSWFRKNPGTTDWERMSIGGRYVESVNKGAKSFSLRIKDLTVADSATYYCKAREARHPWLRQWYDGAGTVLTVNGGGGSGGGGSGGGGS
modifications: MA-PEG4-va-EDA-PNU159682 on Cys 442 (EU) of the Fc
In turn, B2 had an IC50 (nM) 96 h, cell viability (Cell Titre Glo), Kasumi-2 cells of 9.1 nM; an IC50 (nM) 96 h, cell viability (Cell Titre Glo), MHH-ES1 cells of 37.5 nM; an IC50 (nM) 96 h, cell viability (Cell Titre Glo), PA-1 cells of 0.025 nM.

B3: P3A1hFc-PEG4-va-EDA-PNU (Fc fusion, not shown: a dimerising Fc or GST)
chain: TRVDQTPRTATKETGESLTINCVLTDTSYGLYSTSWFRKNPGTTDWERMSIGGRYVESVNKGAKSFSLRIKDLTVADSATYYCKAREARHPWLRQWYDGAGTVLTVNGGGGSGGGGSGGGGS
modifications: MA-PEG4-va-EDA-PNU159682 on Cys 239 (EU) of the Fc
B3 came in with an IC50 (nM) 96 h, cell viability (Cell Titre Glo), 697 cells of 61 nM; an IC50 (nM) 96 h, cell viability (Cell Titre Glo), Kasumi-2 cells of 2.3 nM; an IC50 (nM) 96 h, cell viability (Cell Titre Glo), MHH-ES1 cells of 18 nM; an IC50 (nM) 96 h, cell viability (Cell Titre Glo), PA-1 cells of 0.15 nM. Further, the ROR1 targeting/2V non-targeting window, 697 cells came to 4 fold; the ROR1 targeting/2V non-targeting window, Kasumi-2 cells worked out at 43 fold; the ROR1 targeting/2V non-targeting window, MHH-ES1 cells worked out at 8.4 fold; the ROR1 targeting/2V non-targeting window, PA-1 cells amounted to 360 fold.
